Here are results for eight substances from the supplement of paper PMC11246515.

± gives the standard deviation of the averaged measurements.

The data set in a line: total protein half-life in vivo (active degradation + dilution); higher = more stable protein.
Setting [1] is: E. coli NCM3722 delta-clpP delta-lon delta-hslV, growth: N-lim chemostat, doubling time 6 h.
[2] abbreviates: E. coli NCM3722 delta-clpP, growth: N-lim chemostat, doubling time 6 h.
The mark [3] stands for this setting: E. coli NCM3722 delta-hslV, growth: N-lim chemostat, doubling time 6 h.
Where [4] appears, read: E. coli NCM3722 delta-lon, growth: N-lim chemostat, doubling time 6 h.
[5] abbreviates: E. coli NCM3722 delta-smpB, growth: N-lim chemostat, doubling time 6 h.
Where [6] appears, read: wild type E. coli NCM3722, growth: C-lim chemostat, doubling time 3 h.
[7] abbreviates: wild type E. coli NCM3722, growth: C-lim chemostat, doubling time 6 h.
Where [8] appears, read: wild type E. coli NCM3722, growth: C-lim chemostat, doubling time 12 h.
Setting [9] is: wild type E. coli NCM3722, growth: N-lim chemostat, doubling time 6 h.
The mark [10] stands for this setting: wild type E. coli NCM3722, growth: N-lim chemostat, doubling time 12 h.
Setting [11] is: wild type E. coli NCM3722, growth: P-lim chemostat, doubling time 6 h.
Setting [12] is: wild type E. coli NCM3722, growth: P-lim chemostat, doubling time 12 h.

For the substance “MSLDINQIALHQLIKRDEQNLELVLRDSLLEPTETVVEMVAELHRVYSAKNKAYGLFSEESELAQTLRLQRQGEEDFLAFSRAATGRLRDELAKYPFADGGFVLFCHYRYLAVEYLLVAVLSNLSSMRVNENLDINPTHYLDINHADIVARIDLTEWETNPESTRYLTFLKGRVGRKVADFFMDFLGASEGLNAKAQNRGLLQAVDDFTAEAQLDKAERQNVRQQVYSYCNEQLQAGEEIELKSLSKELAGVSEVSFTEFAAEKGYELEESFPADRSTLRQLTKFAGSGGGLTINFDAMLLGERIFWDPATDTLTIKGTPPNLRDQLQRRTSGGN”, the “total protein half-life in vivo” value under setting [1] worked out at 6.4 ± 0.28 h; the “total protein half-life in vivo” value under setting [2] is 6.91 ± 0.46 h; the “total protein half-life in vivo” value under setting [3] was 5.81 ± 0.19 h; the “total protein half-life in vivo” value under setting [4] was found to be 5.78 ± 0.17 h; the “total protein half-life in vivo” value under setting [5] amounted to 5.911 ± 0.055 h; the “total protein half-life in vivo” value under setting [6] amounted to 3.22 ± 0.17 h. For the same substance, the “total protein half-life in vivo” value runs as follows: under setting [7], 6.07 ± 0.17 h; under setting [8], 10.4 ± 2.2 h; under setting [9], 6.08 ± 0.28 h; under setting [10], 12 ± 2.2 h; under setting [11], 6.08 ± 0.094 h; under setting [12], 12.7 ± 0.4 h.

Consider P0AAG3, for which the “total protein half-life in vivo” value reads like this: under setting [1], 6.26 ± 0.74 h; under setting [2], 6.4 ± 1.1 h; under setting [3], 6.83 ± 1.4 h; under setting [4], 6.053 ± 0.0072 h; under setting [5], 5.56 ± 0.4 h; under setting [6], 3.02 ± 0.25 h. Further, the “total protein half-life in vivo” value stood at 6.06 ± 0.07 h under setting [7]; 11.3 ± 0.26 h under setting [8]; 5.82 ± 0.16 h under setting [9]; 11.6 ± 0.28 h under setting [10]; 5.56 ± 0.15 h under setting [11]; 11.4 ± 1.6 h under setting [12].

For “MKENNLNRVIGWSGLLLTSLLSTSALADNIGTSAEELGLSDYRHFVIYPRLDKALKAQKNNDEATAIREFEYIHQQVPDNIPLTLYLAEAYRHFGHDDRARLLLEDQLKRHPGDARLERSLAAIPVEVKSVTTVEELLAQQKACDAAPTLRCRSEVGQNALRLAQLPVARAQLNDATFAASPEGKTLRTDLLQRAIYLKQWSQADTLYNEARQQNTLSAAERRQWFDVLLAGQLDDRILALQSQGIFTDPQSYITYATALAYRGEKARLQHYLIENKPLFTTDAQEKSWLYLLSKYSANPVQALANYTVQFADNRQYVVGATLPVLLKEGQYDAAQKLLATLPANEMLEERYAVSVATRNKAEALRLARLLYQQEPANLTRLDQLTWQLMQNEQSREAADLLLQRYPFQGDARVSQTLMARLASLLESHPYLATPAKVAILSKPLPLAEQRQWQSQLPGIADNCPAIVRLLGDMSPSYDAAAWNRLAKCYRDTLPGVALYAWLQAEQRQPSAWQHRAVAYQAYQVEDYATALAAWQKISLHDMSNEDLLAAANTAQAAGNGAARDRWLQQAEKRGLGSNALYWWLHAQRYIPGQPELALNDLTRSINIAPSANAYVARATIYRQRHNVPAAVSDLRAALELEPNNSNTQAALGYALWDSGDIAQSREMLEPAHKGLPDDPALIRQLAYVNQRLDDMPATQHYARLVIDDIDNQALITPLTPEQNQQRFNFRRLHEEVGRRWTFSFDSSIGLRSGAMSTANNNVGGAAPGKSYRSYGQLEAEYRIGRNMLLEGDLLSVYSRVFADTGENGVMMPVKNPMSGTGLRWKPLRDQIFFIAVEQQLPLNGQNGASDTMLRASASFFNGGKYSDEWHPNGSGWFAQNLYLDAAQYIRQDIQAWTADYRVSWHQKVANGQTIEPYAHVQDNGYRDKGTQGAQLGGVGVRWNIWTGETHYDAWPHKVSLGVEYQHTFKAINQRNGERNNAFLTIGVHW”, the “total protein half-life in vivo” value was 6.61 ± 0.31 h under setting [2]; 6.08 ± 0.15 h under setting [4]; 5.92 ± 0.22 h under setting [5]; 6.45 ± 0.45 h under setting [7]; 11.31 ± 0.082 h under setting [8]; 6.193 ± 0.047 h under setting [9]. The “total protein half-life in vivo” value amounted to 12.7 ± 1 h under setting [10] and 5.88 ± 0.08 h under setting [11].

As to “MSTANQKPTESVSLNAFKQPKAFYLIFSIELWERFGYYGLQGIMAVYLVKQLGMSEADSITLFSSFSALVYGLVAIGGWLGDKVLGTKRVIMLGAIVLAIGYALVAWSGHDAGIVYMGMAAIAVGNGLFKANPSSLLSTCYEKNDPRLDGAFTMYYMSVNIGSFFSMIATPWLAAKYGWSVAFALSVVGLLITIVNFAFCQRWVKQYGSKPDFEPINYRNLLLTIIGVVALIAIATWLLHNQEVARMALGVVAFGIVVIFGKEAFAMKGAARRKMIVAFILMLEAIIFFVLYSQMPTSLNFFAIRNVEHSILGLAVEPEQYQALNPFWIIIGSPILAAIYNKMGDTLPMPTKFAIGMVMCSGAFLILPLGAKFASDAGIVSVSWLVASYGLQSIGELMISGLGLAMVAQLVPQRLMGFIMGSWFLTTAGANLIGGYVAGMMAVPDNVTDPLMSLEVYGRVFLQIGVATAVIAVLMLLTAPKLHRMTQDDAADKAAKAAVA”, the “total protein half-life in vivo” value under setting [10] came out at 4.49 h.

In the case of “MRITIYTRNDCVQCHATKRAMENRGFDFEMINVDRVPEAAEALRAQGFRQLPVVIAGDLSWSGFRPDMINRLHPAPHAASA [P0AC65]”, the “total protein half-life in vivo” value under setting [1] worked out at 2.48 ± 0.033 h.

As to “MKHLTEMVRQHKAGKTNGIYAVCSAHPLVLEAAIRYASANQTPLLIEATSNQVDQFGGYTGMTPADFRGFVCQLADSLNFPQDALILGGDHLGPNRWQNLPAAQAMANADDLIKSYVAAGFKKIHLDCSMSCQDDPIPLTDDIVAERAARLAKVAEETCLEHFGEADLEYVIGTEVPVPGGAHETLSELAVTTPDAARATLEAHRHAFEKQGLNAIWPRIIALVVQPGVEFDHTNVIDYQPAKASALSQMVENYETLIFEAHSTDYQTPQSLRQLVIDHFAILKVGPALTFALREALFSLAAIEEELVPAKACSGLRQVLEDVMLDRPEYWQSHYHGDGNARRLARGYSYSDRVRYYWPDSQIDDAFAHLVRNLADSPIPLPLISQYLPLQYVKVRSGELQPTPRELIINHIQDILAQYHTACEGQ [P0C8K0]”, the “total protein half-life in vivo” value under setting [6] stood at 2.63 ± 0.042 h, the “total protein half-life in vivo” value under setting [7] stood at 3.29 h and the “total protein half-life in vivo” value under setting [8] was determined as 5 ± 1.3 h.

Turning to “MAQPAAIIRIKNLRLRTFIGIKEEEINNRQDIVINVTIHYPADKARTSEDINDALNYRTVTKNIIQHVENNRFSLLEKLTQDVLDIAREHHWVTYAEVEIDKLHALRYADSVSMTLSWQR [P0AC19]”, the “total protein half-life in vivo” value runs as follows: under setting [1], 4.1 ± 0.57 h; under setting [2], 2.73 ± 0.7 h; under setting [3], 2.79 ± 0.23 h; under setting [4], 3.5 ± 0.081 h; under setting [5], 2.93 ± 0.14 h; under setting [7], 4.77 ± 0.2 h. Further, the “total protein half-life in vivo” value is, setting by setting: under setting [8], 10 ± 4 h; under setting [9], 2.58 ± 0.23 h; under setting [10], 3.989 ± 0.015 h; under setting [11], 5.16 ± 0.45 h; under setting [12], 11.5 ± 0.42 h.

As to “MIAEFESRILALIDGMVDHASDDELFASGYLRGHLTLAIAELESGDDHSAQAVHTTVSQSLEKAIGAGELSPRDQALVTDMWENLFQQASQQ”, the “total protein half-life in vivo” value by setting is: under setting [1], 4.91 ± 0.31 h; under setting [2], 3.35 ± 0.41 h; under setting [3], 2.9 ± 0.23 h; under setting [4], 3.81 ± 0.062 h; under setting [5], 2.1 ± 0.046 h; under setting [6], 2.2 ± 0.23 h. Also, the “total protein half-life in vivo” value by setting is: under setting [7], 3.39 ± 0.1 h; under setting [8], 4.87 ± 0.25 h; under setting [9], 2.71 ± 0.54 h; under setting [10], 3.79 h; under setting [11], 2.75 ± 0.83 h; under setting [12], 4.58 ± 0.62 h.
